Experimental data taken from IntAct's records for PubMed 21398607.

Target: wasp_mouse Was (UniProt P70315)
Sequence (P70315 whole entry): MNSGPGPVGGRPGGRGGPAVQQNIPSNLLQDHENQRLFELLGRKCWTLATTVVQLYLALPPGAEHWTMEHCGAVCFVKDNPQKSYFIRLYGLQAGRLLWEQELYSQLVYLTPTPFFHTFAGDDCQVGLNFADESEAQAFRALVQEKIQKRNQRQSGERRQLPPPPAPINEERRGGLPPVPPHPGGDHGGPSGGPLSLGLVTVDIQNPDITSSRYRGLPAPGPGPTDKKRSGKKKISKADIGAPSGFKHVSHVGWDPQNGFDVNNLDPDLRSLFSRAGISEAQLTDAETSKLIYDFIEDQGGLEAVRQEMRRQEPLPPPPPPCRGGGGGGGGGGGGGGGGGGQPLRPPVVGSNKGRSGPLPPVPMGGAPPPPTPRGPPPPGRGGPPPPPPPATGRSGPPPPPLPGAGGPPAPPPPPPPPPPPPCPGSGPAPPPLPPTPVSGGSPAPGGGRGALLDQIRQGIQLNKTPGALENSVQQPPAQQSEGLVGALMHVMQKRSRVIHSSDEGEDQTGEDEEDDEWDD

Sequence of WAS/WASL-interacting protein family member 1 (Homo sapiens), O43516 S436A (O43516 whole entry S436A): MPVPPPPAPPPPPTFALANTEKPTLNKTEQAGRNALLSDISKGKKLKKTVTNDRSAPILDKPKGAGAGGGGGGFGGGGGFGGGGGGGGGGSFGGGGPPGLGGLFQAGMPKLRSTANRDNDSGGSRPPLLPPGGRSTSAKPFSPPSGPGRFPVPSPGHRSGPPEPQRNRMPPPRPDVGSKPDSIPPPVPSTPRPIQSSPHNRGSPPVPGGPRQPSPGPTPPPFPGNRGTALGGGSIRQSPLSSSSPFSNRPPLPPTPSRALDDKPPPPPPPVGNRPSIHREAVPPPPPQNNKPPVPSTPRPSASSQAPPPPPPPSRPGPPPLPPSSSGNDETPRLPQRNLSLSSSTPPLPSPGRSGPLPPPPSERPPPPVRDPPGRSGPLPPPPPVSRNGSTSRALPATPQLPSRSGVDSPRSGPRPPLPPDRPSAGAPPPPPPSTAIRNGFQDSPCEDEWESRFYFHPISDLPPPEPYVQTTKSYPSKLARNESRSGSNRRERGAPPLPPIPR

- effect of a mutation on the interaction: disrupting interaction
Substance: WAS/WASL-interacting protein family member 1 (Homo sapiens), O43516 S436A
